What is called EC50 is the concentration giving half of the maximal effect. Broadly, the EC50 (read off the curve) is the midpoint of the concentration-response curve.

Where a chain is given by its changes, count along the chain named. Bounds are passed on as bounds.

Experimental findings from patent US20220372138A1 (IOMX THERAPEUTICS, published 2022) are described below.

The chains are these.
T1: murine IGSF11 expressed on cells (mouse, UniProt P0C673 23-428)
T1 construct: MC38-IGSF11, CT26-IGSF11, MC38-wt (naturally expresses murine IGSF11)
T1 sequence: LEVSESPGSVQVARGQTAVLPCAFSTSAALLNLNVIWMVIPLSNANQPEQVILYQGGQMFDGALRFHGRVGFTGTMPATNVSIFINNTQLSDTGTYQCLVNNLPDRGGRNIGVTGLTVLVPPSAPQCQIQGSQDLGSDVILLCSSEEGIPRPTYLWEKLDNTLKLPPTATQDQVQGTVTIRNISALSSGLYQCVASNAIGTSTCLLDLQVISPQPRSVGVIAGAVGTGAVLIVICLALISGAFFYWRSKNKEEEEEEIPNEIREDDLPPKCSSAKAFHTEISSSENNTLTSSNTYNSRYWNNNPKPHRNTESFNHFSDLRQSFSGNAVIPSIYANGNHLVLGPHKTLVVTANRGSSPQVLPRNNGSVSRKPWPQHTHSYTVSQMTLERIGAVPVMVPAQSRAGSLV

T2: ECD of cynomolgus monkey IGSF11, recombinant biotinylated (cynomolgus monkey, UniProt Q5DX21 23-241 (human entry))
T2 construct: whole entry named
T2 chain: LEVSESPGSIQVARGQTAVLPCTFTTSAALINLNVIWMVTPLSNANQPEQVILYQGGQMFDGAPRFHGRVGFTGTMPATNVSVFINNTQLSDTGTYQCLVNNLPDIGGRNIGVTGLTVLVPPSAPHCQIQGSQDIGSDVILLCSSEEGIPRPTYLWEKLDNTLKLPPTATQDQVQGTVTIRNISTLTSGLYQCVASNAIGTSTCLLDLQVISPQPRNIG

T3: ECD of murine IGSF11, recombinant biotinylated (mouse, UniProt P0C673 23-240)
T3 construct: whole entry named; also called Mouse IGSF11
T3 sequence: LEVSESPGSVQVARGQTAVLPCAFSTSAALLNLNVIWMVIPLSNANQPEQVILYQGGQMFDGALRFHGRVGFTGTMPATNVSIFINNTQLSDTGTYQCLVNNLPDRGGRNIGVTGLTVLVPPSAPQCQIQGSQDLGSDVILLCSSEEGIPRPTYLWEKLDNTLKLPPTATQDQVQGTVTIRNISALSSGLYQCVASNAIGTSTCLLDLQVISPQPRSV

T4: extracellular domain (ECD) of human IGSF11 (VSIG3), recombinant (human, UniProt Q5DX21 23-241)
T4 construct: biotinylated where captured on streptavidin; tags of the reagent not always stated; also called IGSF11 (ECD domain); ECD-IGSF11
T4 sequence: T2 chain with T17P, V83I, T185A, T187S

T5: human IGSF11 (VSIG3) ECD, His-tagged (human, UniProt Q5DX21 23-241)
T5 construct: in part bought (SinoBiological 13094-H08H); also called HIS-IGSF11; IGSF11-HIS; not shown: His tag
T5 sequence: T2 chain with T17P, V83I, T185A, T187S

T6: human IGSF11 (VSIG3) expressed on cells (human, UniProt Q5DX21 23-431)
T6 sequence: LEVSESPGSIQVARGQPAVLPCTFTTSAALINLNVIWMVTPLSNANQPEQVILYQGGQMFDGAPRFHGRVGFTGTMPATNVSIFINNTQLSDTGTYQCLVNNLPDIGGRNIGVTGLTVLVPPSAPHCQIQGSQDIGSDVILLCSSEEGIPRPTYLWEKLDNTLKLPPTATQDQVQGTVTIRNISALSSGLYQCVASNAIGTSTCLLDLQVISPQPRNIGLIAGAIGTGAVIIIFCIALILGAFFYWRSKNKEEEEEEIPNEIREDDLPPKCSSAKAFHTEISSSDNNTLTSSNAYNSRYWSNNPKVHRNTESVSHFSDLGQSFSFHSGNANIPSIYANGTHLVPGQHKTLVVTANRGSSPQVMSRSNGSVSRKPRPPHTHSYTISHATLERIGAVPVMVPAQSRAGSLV

T7: IgV domain of human IGSF11 fused to murine IgG2a Fc (human, UniProt Q5DX21 23-143)
T7 construct: not shown: murine IgG2a Fc-region
T7 sequence: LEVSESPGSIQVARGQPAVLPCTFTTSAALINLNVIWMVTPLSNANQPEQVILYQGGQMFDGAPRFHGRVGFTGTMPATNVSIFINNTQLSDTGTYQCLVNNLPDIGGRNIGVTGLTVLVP

T8: full-length ECD of human IGSF11 fused to murine Fc (human, UniProt Q5DX21 23-241)
T8 construct: also called Fc-fusion IGSF11 ECD; not shown: murine Fc
T8 sequence: T2 chain with T17P, V83I, T185A, T187S

T9: IgC2 domain of human IGSF11 fused to murine IgG2a Fc (human, UniProt Q5DX21 137-241)
T9 construct: not shown: murine IgG2a Fc-region
T9 sequence: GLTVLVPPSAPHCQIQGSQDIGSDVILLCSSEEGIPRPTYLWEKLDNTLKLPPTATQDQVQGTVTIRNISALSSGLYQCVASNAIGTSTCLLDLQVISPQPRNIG

B1: C-007 (IgG1 format) (antibody, V domains shown)
VH: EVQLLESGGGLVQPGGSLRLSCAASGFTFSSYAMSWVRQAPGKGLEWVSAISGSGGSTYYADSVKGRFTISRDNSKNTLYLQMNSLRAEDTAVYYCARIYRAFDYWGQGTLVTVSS
VL: ASVLTQPPSVSAAPGQKVTISCSGSSSNIGNNYVSWYQQLPGTAPKLLIYDNNKRPSGIPDRFSGSKSGTSATLGITGLQAEDEADYYCQLYEEEHSTWVFGGGTKLTVL
B2: C-001 (IgG1 format) (antibody, V domains shown)
VH: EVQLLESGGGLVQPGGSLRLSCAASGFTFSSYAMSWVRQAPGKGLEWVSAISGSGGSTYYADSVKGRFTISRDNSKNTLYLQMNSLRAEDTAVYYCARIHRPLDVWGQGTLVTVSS
VL: B1 VL with Q90G, L91S, Y92W, E93L, H96R, T98Q, W99Y
B3: C-003 (IgG1 format) (antibody, V domains shown)
VH: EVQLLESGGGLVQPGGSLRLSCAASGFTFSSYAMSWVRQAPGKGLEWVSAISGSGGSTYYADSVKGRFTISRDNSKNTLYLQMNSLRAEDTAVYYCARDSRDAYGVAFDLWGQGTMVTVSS
VL: ASVLTQPPSVSAAPGQKVTISCSGSSSNIGNNYVSWYQQLPGTAPKLLIYDNNKRPSGIPDRFSGSKSGTSATLGITGLQAEDEADYYCLSYTSSQYVFGGGTKLTVL
B4: C-017 (IgG1 format) (antibody, V domains shown)
VH: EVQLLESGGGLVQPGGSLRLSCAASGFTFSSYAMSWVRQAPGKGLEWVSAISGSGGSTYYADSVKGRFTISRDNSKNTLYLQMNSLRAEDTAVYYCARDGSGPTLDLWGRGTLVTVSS
VL: DIQMTQSPSSLSASVGDRVTITCRASQSISSYLNWYQQKPGKAPKLLIYAASSLQSGVPSRFSGSGSGTDFTLTISSLQPEDFATYYCQQHRYIPPWTFGQGTKVEIK
B5: C-004 (Fab format) (Fab, V domains shown)
VH: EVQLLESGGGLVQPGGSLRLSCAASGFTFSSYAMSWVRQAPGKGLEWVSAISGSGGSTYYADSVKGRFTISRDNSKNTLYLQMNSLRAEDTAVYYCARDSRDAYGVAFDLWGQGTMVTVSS
VL: B1 VL with Q90L, L91T, Y92W, E93T, E94G, E95A, H96G, S97R, T98I, W99F
notes: Fab from E. coli lysate
B6: C-019 (Fab format) (Fab, V domains shown)
VH: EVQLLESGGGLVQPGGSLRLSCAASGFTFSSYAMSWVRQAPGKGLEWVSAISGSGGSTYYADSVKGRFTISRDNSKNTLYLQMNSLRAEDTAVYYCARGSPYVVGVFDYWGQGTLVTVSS
VL: B4 VL with H91W, R92Q, Y93H, I94E, W97Y
notes: Fab from E. coli lysate
B7: C-013 (Fab format) (Fab, V domains shown)
VH: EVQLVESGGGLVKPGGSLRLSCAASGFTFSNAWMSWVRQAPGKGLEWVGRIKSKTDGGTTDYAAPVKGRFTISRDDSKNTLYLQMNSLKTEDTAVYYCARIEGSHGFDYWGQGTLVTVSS
VL: SYELTQPPSVSVSPGQTASITCSGDKLGDKYASWYQQKPGQSPVLVIYQDSKRPSGIPERFSGSNSGNTATLTISGTQAEDEADYYCASYLHTPKQFVFGGGTKLTVL
notes: Fab from E. coli lysate
B8: C-018 (Fab format) (Fab, V domains shown)
VH: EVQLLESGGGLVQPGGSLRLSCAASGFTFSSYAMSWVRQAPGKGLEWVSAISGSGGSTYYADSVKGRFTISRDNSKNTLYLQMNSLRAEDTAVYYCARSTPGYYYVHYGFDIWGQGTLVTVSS
VL: B7 VL with A88Q, S89A, Y90W, L91S, H92T, T93S, P94T, K95H, Q96S, F97W
notes: Fab from E. coli lysate
B9: C-027 (Fab format) (Fab, V domains shown)
VH: QVQLVQSGAEVKKPGSSVKVSCKASGGTFSSYAISWVRQAPGQGLEWMGGIIPIFGTANYAQKFQGRVTITADESTSTAYMELSSLRSEDTAVYYCARENIPSYYDSSGRQDAFDIWGQGTMVTVSS
VL: B7 VL with A88Q, T93K, P94S, K95H, Q96G, F97A
notes: Fab from E. coli lysate
B10: B-006 (chain-swapped IgG1) (antibody, V domains shown)
VH: EVQLVESGGGLIQPGGSLRLSCAASGFTVSSNYMSWVRQAPGKGLEWVSVIYSGGSTYYADSVKGRFTISRDNSKNTLYLQMNSLRAEDTAVYYCARGNPYYYGDLQVNFDYWGQGTLVTVSS
VL: QAVVTQEPSLTVSPGETVTLTCASSTGAVTSGYYPNWFQQRPGQAPRALIYSTSNKDSWTPARFSGSLLGGKAALTLSGVQPEDEAEYYCLLYYGGAWVFGGGTKLTVL
notes: human IgG1 format; also called B6
B11: B-007 (chain-swapped IgG1) (antibody, V domains shown)
VH: B10 VH
VL: B10 VL with E16G, G32A, R41K, D57H, E87D
notes: human IgG1 format; also called B7
B12: D-115 (IgG format) (antibody, V domains shown)
VH: EVQLLESGGGLVQPGGSLRLSCAASGFTFQFSALSWVRQAPGKGLEWVSAISYGGGSKYYADSVKGRFTISRDNSKNTLYLQMNSLRAEDTAVYYCARDSRDAYGVAFDLWGQGTMVTVSS
VL: B3 VL with L90Q, T93E, S95R, Q96L, Y97F

The first test deals with T1, murine IGSF11 expressed on cells. Put plainly: IgG FACS CT26-IGSF11.
Source text: (§1) Unbound antibodies were removed by washing the cells three time with FACS buffer. Bound antibodies were detected with a mouse anti-human IgG antibody conjugated with AlexaFluor647.
The molecule B1 returned an EC50 of 20 to 50 nM.

For B2, the EC50 lay in the range of 20 to 50 nM.

With B3, the EC50 is < 20 nM.

For B4, the EC50 is 20 to 50 nM.

Another test deals with Streptavidin (UniProt P22629 37-163, limits assumed). Put plainly: Fab ELISA. Background: An ELISA detects its analyte on a solid surface through an enzyme-linked reagent.
Streptavidin, sequence (P22629 37-163 limits assumed): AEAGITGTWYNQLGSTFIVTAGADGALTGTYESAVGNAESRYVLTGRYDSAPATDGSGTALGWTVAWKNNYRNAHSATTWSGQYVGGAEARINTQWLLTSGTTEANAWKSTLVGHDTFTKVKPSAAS
Procedure: (§2) In order to identify IGSF11-specific binding ABPs, monoclonal Fabs expressed from E. coli were generated from the enriched set of anti-IGFS11 antibody-expressing phage. After bacterial lysis, the Fabs were tested for their binding properties and cross-reactivity profile on recombinant ECD-IGSF11 (human, mouse and cynomolgus monkey) by standard ELISA. Briefly, biotinylated recombinant ECD-IGSF11 from human, mouse, or cynomolgus monkey were immobilized at 2 ug/mL on a streptavidin-coated 384-well Maxisorp plate. The surface was blocked with 2% (w/v) skim milk powder in PBST. After three wash cycles with PBST, a bacterial lysate of each of the anti-IGSF11 Fabs in 2% (w/v) skim milk powder was applied to the immobilized IGSF11 and incubated for 1 h. After removing all unbound Fab by 3 wash cycles with PBST, bound Fab antibodies were detected with a goat anti-human Fab antibody conjugated with horseradish peroxidase. After three wash cycles with PBST the ELISA was developed with TMB substrate.
As to B5, the A450 is < 0.1.

B6: the A450 was < 0.1.

As for B7, the A450 was < 0.1.

As to B8, the A450 was < 0.1.

As for B9, the A450 is < 0.1.

The target of another test is T2, ECD of cynomolgus monkey IGSF11, …. In words: Fab ELISA.
Procedure: as §2
On to B5, for which the A450 was < 1.

Take B6: the A450 is < 1.

Take B8: the A450 is < 1.

Consider B9, for which the A450 is < 1.

The target of the next test is T3, ECD of murine IGSF11, recombinant …. In words: Fab ELISA.
Procedure: as §2
For the molecule B5, the A450 was < 1.

For B6, the A450 is < 1.

On to B8, for which the A450 was < 1.

Another test addresses T4, extracellular domain (ECD) of human …. Put plainly: Fab ELISA.
Procedure: as §2
On to B5, for which the A450 was < 1.

Regarding B6, the A450 was < 1.

On to B7, for which the A450 is < 1.

Regarding B8, the A450 is < 1.

Consider B9, for which the A450 is < 1.

The target in another test is T5, human IGSF11 (VSIG3) ECD, His-tagged. In words: ELISA: IGSF11-HIS coated, IgG1 dilution series, anti-human antibody-HRP, TMB.
With B10, the “EC50 (read off the curve)” value was ~0.02 nM.

Take B11: the “EC50 (read off the curve)” value was ~0.01 nM.

The next test has as its target T1, murine IGSF11 expressed on cells. In words: IgG FACS MC38-IGSF11.
Source text: as §1
Take B1: the EC50 is < 20 nM.

B2 registered an EC50 of 50 to 100 nM.

For the molecule B3, the EC50 was < 20 nM.

As to B4, the EC50 was 50 to 100 nM.

The target of a further test is T6, human IGSF11 (VSIG3) expressed on cells. Put plainly: IgG FACS Colo741.
Source text: as §1
Regarding B12, the EC50 is < 0.1 nM.

The target in a further test is T5, human IGSF11 (VSIG3) ECD, His-tagged. Put plainly: blocking ELISA: VSIR-Fc immobilised, IgG dilution series pre-incubated with 200 nM IGSF11 ECD-His, bound IGSF11 detected with anti-His-HRP.
For B10, the “IC50 (read off the curve)” value was ~5 nM.

B11: the “IC50 (read off the curve)” value is ~3 nM.

Another test deals with T7, IgV domain of human IGSF11 fused to …. Put plainly: IgG ELISA.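 Note: ELISA binding of IgG antibodies to plate-coated IGSF11 Fc-fusion proteins (full-length ECD, IgV or IgC2 domain), detected via HRP-labelled anti-human IgG with TMB development.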
Procedure: (§3) Binding of IgG antibodies to each of the full-length ECD of IGSF11, to the IgV domain of IGSF11 and to the IgC2 domain of IGSF11, was tested in the ELISA assay as follows: briefly, recombinant domains of Fc-fusion IGSF11 proteins were coated at 2 ug/mL on a 384-well Maxisorp plate. The surface was blocked with 2% (w/v) skim milk powder in PBST. […] After removing all unbound antibodies by 3 wash cycles with PBST, bound IgG ABPs were detected with a goat anti-human IgG antibody conjugated with horseradish peroxidase. After three wash cycles with PBST the ELISA was developed with TMB substrate.
In the case of B1, the EC50 was < 1 nM.

Consider B2, for which the EC50 was < 1 nM.

Regarding B4, the EC50 was 1 to 20 nM.

In another test the target is T8, full-length ECD of human IGSF11 fused …. Put plainly: IgG ELISA.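 Note: ELISA binding of IgG antibodies to plate-coated IGSF11 Fc-fusion proteins (full-length ECD, IgV or IgC2 domain), detected via HRP-labelled anti-human IgG with TMB development.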
Procedure: as §3
In the case of B1, the EC50 is < 1 nM.

For the molecule B2, the EC50 is < 1 nM.

On to B3, for which the EC50 is < 1 nM.

The molecule B4 returned an EC50 of 1 to 20 nM.

The target in another test is T9, IgC2 domain of human IGSF11 fused to …. In words: IgG ELISA.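 Note: ELISA binding of IgG antibodies to plate-coated IGSF11 Fc-fusion proteins (full-length ECD, IgV or IgC2 domain), detected via HRP-labelled anti-human IgG with TMB development.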
Procedure: as §3
On to B3, for which the EC50 is < 1 nM.

Another test has as its target T4, extracellular domain (ECD) of human …. Put plainly: BLI apparent affinity, IgG on AHC sensor, IGSF11 ECD 100 nM.
Source text: Briefly, various APBs were loaded on an optical biosensor via a commercially available Capture System (AHC sensors, ForteBio).
Turning to B1, the Kd was < 125 nM.

For B2, the Kd is < 75 nM.

Regarding B3, the Kd is < 15 nM.

Another test has as its target T6, human IGSF11 (VSIG3) expressed on cells. In words: IgG FACS MDA-MB-231-IGSF11.
Source text: as §1
With B1, the EC50 was < 10 nM.

In the case of B2, the EC50 is < 10 nM.

In turn, B3 came in with an EC50 of 10 to 15 nM.

In turn, B4 yielded an EC50 of 15 to 25 nM.
